T1: EsCas13d, nuclease-dead (Eubacterium siraeum, UniProt B0MS50, R295A;H300A;R849A;H854A)
T1 sequence: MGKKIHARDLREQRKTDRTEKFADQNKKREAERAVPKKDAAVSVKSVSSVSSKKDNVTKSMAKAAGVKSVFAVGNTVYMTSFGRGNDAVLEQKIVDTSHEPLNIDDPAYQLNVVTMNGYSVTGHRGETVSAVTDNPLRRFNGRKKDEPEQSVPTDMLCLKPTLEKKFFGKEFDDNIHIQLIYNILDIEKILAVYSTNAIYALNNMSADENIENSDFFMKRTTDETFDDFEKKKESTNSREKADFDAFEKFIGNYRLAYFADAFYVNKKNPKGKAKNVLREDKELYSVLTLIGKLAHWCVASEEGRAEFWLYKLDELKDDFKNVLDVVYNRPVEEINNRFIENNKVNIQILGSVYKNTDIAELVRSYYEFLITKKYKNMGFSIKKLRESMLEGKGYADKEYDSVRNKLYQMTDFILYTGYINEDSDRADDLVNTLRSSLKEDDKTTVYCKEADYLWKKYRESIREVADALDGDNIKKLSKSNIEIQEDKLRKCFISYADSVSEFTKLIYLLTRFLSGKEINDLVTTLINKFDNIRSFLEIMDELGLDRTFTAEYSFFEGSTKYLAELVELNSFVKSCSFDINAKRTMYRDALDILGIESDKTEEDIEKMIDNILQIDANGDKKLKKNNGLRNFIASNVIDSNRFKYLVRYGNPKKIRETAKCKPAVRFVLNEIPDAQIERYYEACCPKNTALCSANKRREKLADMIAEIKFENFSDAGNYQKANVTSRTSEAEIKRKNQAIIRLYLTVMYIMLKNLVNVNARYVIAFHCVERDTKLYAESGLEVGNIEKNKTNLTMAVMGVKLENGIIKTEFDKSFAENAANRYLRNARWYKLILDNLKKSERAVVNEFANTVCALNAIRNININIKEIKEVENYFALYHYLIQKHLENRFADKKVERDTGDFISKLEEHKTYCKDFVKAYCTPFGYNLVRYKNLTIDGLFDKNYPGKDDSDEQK

B1: target 1 insA 3' of 22,insG 3' of 8 (mixed)
RNA 1: CACCCGUGCAAAAAUGCAGGGGUCUAAAACUGAGCGGAUAACCUCUCUAUGG
RNA 2: GGGAAUGGAUCCACAUCUACGAAUUCGUACACAUAGAGAGGUUAUGCCGCUCACCGAGAUCGGAAGAGCACACGU
B2: target 1 G15C,C22U (mixed)
RNA 1: CACCCGUGCAAAAAUGCAGGGGUCUAAAACUGAGCGGAUAACCUCUCUAUGG
RNA 2: GGGAAUGGAUCCACAUCUACGAAUUCGUAUCAUAGACAGGUUAUCCGCUCACCGAGAUCGGAAGAGCACACGU
B3: target 3 insU 3' of 11,insC 3' of 5 (mixed)
RNA 1: CACCCGUGCAAAAUUGCAGGGGUCUAAAACGACCUGAAUAUUUCAGAUCAAA
RNA 2: GGGAAUGGAUCCACAUCUACGAAUUCGUUUUUGAUCUGAAAUUAUUCACGGUCUGCAGAUCGGAAGAGCACACGU
B4: target 3 U2C (mixed)
RNA 1: CACCCGUGCAAAAUUGCAGGGGUCUAAAACGACCUGAAUAUUUCAGAUCAAA
RNA 2: GGGAAUGGAUCCACAUCUACGAAUUCGUUUUUGAUCUGAAAUAUUCAGGCCUGCAGAUCGGAAGAGCACACGU
B5: target 3 insU 3' of 6,insU 3' of 6 (mixed)
RNA 1: CACCCGUGCAAAAUUGCAGGGGUCUAAAACGACCUGAAUAUUUCAGAUCAAA
RNA 2: GGGAAUGGAUCCACAUCUACGAAUUCGUUUUUGAUCUGAAAUAUUCUUAGGUCUGCAGAUCGGAAGAGCACACGU
B6: target 3 G4U,C6U (mixed)
RNA 1: CACCCGUGCAAAAUUGCAGGGGUCUAAAACGACCUGAAUAUUUCAGAUCAAA
RNA 2: GGGAAUGGAUCCACAUCUACGAAUUCGUUUUUGAUCUGAAAUAUUUAUGUCUGCAGAUCGGAAGAGCACACGU
B7: target 3 insG 3' of 6,insG 3' of 5 (mixed)
RNA 1: CACCCGUGCAAAAUUGCAGGGGUCUAAAACGACCUGAAUAUUUCAGAUCAAA
RNA 2: GGGAAUGGAUCCACAUCUACGAAUUCGUUUUUGAUCUGAAAUAUUCGAGGGUCUGCAGAUCGGAAGAGCACACGU
B8: target 3 insC 3' of 8,insC 3' of 5 (mixed)
RNA 1: CACCCGUGCAAAAUUGCAGGGGUCUAAAACGACCUGAAUAUUUCAGAUCAAA
RNA 2: GGGAAUGGAUCCACAUCUACGAAUUCGUUUUUGAUCUGAAAUAUCUCACGGUCUGCAGAUCGGAAGAGCACACGU
B9: target 3 insG 3' of 8,insG 3' of 2 (mixed)
RNA 1: CACCCGUGCAAAAUUGCAGGGGUCUAAAACGACCUGAAUAUUUCAGAUCAAA
RNA 2: GGGAAUGGAUCCACAUCUACGAAUUCGUUUUUGAUCUGAAAUAUGUCAGGUGCUGCAGAUCGGAAGAGCACACGU
B10: target 3 U2C,C6G (mixed)
RNA 1: CACCCGUGCAAAAUUGCAGGGGUCUAAAACGACCUGAAUAUUUCAGAUCAAA
RNA 2: GGGAAUGGAUCCACAUCUACGAAUUCGUUUUUGAUCUGAAAUAUUGAGGCCUGCAGAUCGGAAGAGCACACGU
B11: target 3 U7A,U22A (mixed)
RNA 1: CACCCGUGCAAAAUUGCAGGGGUCUAAAACGACCUGAAUAUUUCAGAUCAAA
RNA 2: GGGAAUGGAUCCACAUCUACGAAUUCGUUAUUGAUCUGAAAUAUACAGGUCUGCAGAUCGGAAGAGCACACGU
B12: target 3 insC 3' of 5,insG 3' of 1 (mixed)
RNA 1: CACCCGUGCAAAAUUGCAGGGGUCUAAAACGACCUGAAUAUUUCAGAUCAAA
RNA 2: GGGAAUGGAUCCACAUCUACGAAUUCGUUUUUGAUCUGAAAUAUUCACGGUCGUGCAGAUCGGAAGAGCACACGU
B13: target 3 insU 3' of 11,insC 3' of 4 (mixed)
RNA 1: CACCCGUGCAAAAUUGCAGGGGUCUAAAACGACCUGAAUAUUUCAGAUCAAA
RNA 2: GGGAAUGGAUCCACAUCUACGAAUUCGUUUUUGAUCUGAAAUUAUUCAGCGUCUGCAGAUCGGAAGAGCACACGU

What follows are binders tested against T1, EsCas13d, nuclease-dead (assay: crRNA (strand 1, pre-loaded); Mg2+; 40 mM Tris-HCl pH 7.5, 150 mM NaCl, 6 mM MgCl2, 1 mM DTT, 0.1% Tween-20, 0.2 mg/ml BSA; 25 C; 10 min per concentration, then washed). Details: tags: His6-TwinStrep-SUMO cleaved; N-terminal SNAP kept (SNAP-Surface 488); label: 3' end held by stalled T7 RNA polymerase.

Row | Binder | Kd
1 | B1 | 17.4 ± 1 nM
2 | B2 | ~70 nM
3 | B3 | 81.5 ± 12.5 nM
4 | B4 | 88.5 ± 18 nM
5 | B5 | 17.3 ± 1.2 nM
6 | B6 | 7.45 ± 0.85 nM
7 | B7 | 8.85 ± 0.8 nM
8 | B8 | 74.5 ± 9.5 nM
9 | B9 | 57 ± 27 nM
10 | B10 | 31.5 ± 4.5 nM
11 | B11 | 42.5 ± 7.25 nM
12 | B12 | 38.5 ± 13 nM
13 | B13 | 90 ± 26 nM
